Two molecules from article PMC4938799, “LD Motif Recognition by Talin: Structure of the Talin-DLC1 Complex” (Structure(London, England:1993), 2016) can be followed below.

This assay has as its target T1, talin R8 domain.
T1 construct: talin rod domain R8 (four-helix bundle), isolated domain used 15N-labelled for NMR; Construct limits, host and species are probably in the Supplemental Experimental Procedures; also called [15N]talin R8 domain
Nature of the assay: NMR titration; KD fitted from 1H,15N-HSQC chemical-shift changes; 0.1 mM 15N talin R8, peptide/protein ratios 0.1 to 8; 298 K, 20 mM sodium phosphate pH 6.5, 50 mM NaCl. To be noted: both partners purified.

B1: paxillin LD1 peptide (peptide)
chain: MDDLDALLADLESTTS
One may read the Kd as the free concentration of one partner at which half of the binding sites on the other are occupied at equilibrium, for simple one-to-one binding. As to B1, the Kd is 168 µM.

B2: DLC1(461–489) peptide (peptide)
chain: ENEDIFPELDDILYHVKGMQRIVNQWSEK
modifications: Paper numbering is the 1091-residue isoform; +437 gives canonical numbering.
Consider B2, for which the equilibrium dissociation constant (Kd) came out at 48 µM.
